The values that follow come from paper PMC2115704.

Common to all, as to test: SDS-PAGE in the absence of reductant
Assay [1] addresses truncated TSP protein Val333 (human).
The target of assay [2] is truncated TSP protein Pro449 (human).
The target in assay [3] is endogenous COS-1 cell TSP (African green monkey (endogenous in COS-1)).

truncated TSP protein Pro449 (domain or fragment), sequence (P07996 374-552): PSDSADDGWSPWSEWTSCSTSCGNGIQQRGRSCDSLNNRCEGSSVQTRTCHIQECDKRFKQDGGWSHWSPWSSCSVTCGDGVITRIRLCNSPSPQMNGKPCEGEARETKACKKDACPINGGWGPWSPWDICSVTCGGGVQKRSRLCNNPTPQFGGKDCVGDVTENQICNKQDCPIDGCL
truncated TSP protein Val333 (domain or fragment), sequence (P07996 374-552): as above

By stoichiometry N is commonly meant a count of units in the complex or per binding partner. Consider “truncated TSP protein Val333 (domain or fragment)”, for which, in assay [1], the stoichiometry N came to 3.
In assay [2], “truncated TSP protein Pro449 (domain or fragment)” returned a stoichiometry N of 3.
In turn, “endogenous COS-1 cell TSP (natural protein)” gave a stoichiometry N in assay [3] of 3.
